The record followed here is article PMC10200060 (2023).

This test addresses T1, human recombinant HMGB1 protein (high-mobility group box-1) (human, UniProt P09429 1-215).
T1 chain: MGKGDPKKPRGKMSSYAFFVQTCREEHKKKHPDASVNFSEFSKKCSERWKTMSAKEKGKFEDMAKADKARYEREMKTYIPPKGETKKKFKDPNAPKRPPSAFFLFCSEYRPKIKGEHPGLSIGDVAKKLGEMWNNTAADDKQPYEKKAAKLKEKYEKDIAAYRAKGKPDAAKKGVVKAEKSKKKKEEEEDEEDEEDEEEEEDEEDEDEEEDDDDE
The test is described as follows: SPR.

B1: lactoferrin-glycyrrhizin conjugate Lf-GL (1:15) (other)
chain: GRRRSVQWCAVSQPEATKCFQWQRNMRKVRGPPVSCIKRDSPIQCIQAIAENRADAVTLDGGFIYEAGLAPYKLRPVAAEVYGTERQPRTHYYAVAVVKKGGSFQLNELQGLKSCHTGLRRTAGWNVPIGTLRPFLNWTGPPEPIEAAVARFFSASCVPGADKGQFPNLCRLCAGTGENKCAFSSQEPYFSYSGAFKCLRDGAGDVAFIRESTVFEDLSDEAERDEYELLCPDNTRKPVDKFKDCHLARVPSHAVVARSVNGKEDAIWNLLRQAQEKFGKDKSPKFQLFGSPSGQKDLLFKDSAIGFSRVPPRIDSGLYLGSGYFTAIQNLRKSEEEVAARRARVVWCAVGEQELRKCNQWSGLSEGSVTCSSASTTEDCIALVLKGEADAMSLDGGYVYTAGKCGLVPVLAENYKSQQSSDPDPNCVDRPVEGYLAVAVVRRSDTSLTWNSVKGKKSCHTAVDRTAGWNIPMGLLFNQTGSCKFDEYFSQSCAPGSDPRSNLCALCIGDEQGENKCVPNSNERYYGYTGAFRCLAENAGDVAFVKDVTVLQNTDGNNNEAWAKDLKLADFALLCLDGKRKPVTEARSCHLAMAPNHAVVSRMDKVERLKQVLLHQQAKFGRNGSDCPDKFCLFQSETKNLLFNDNTECLARLHGKTTYEKYLGPQYVAGITNLKKCSTSPLLEACEFLRK
modifications: glycyrrhizin (oxidised with sodium periodate) coupled to amines of Lf by Schiff-base reaction and reduction with NaBH3CN; ratio Lf:GL 1:15 as printed; modified residues not identified
On to B1, for which the koff worked out at 0.000965 s⁻¹.

B2: lactoferrin-glycyrrhizin conjugate Lf-GL (1:10) (other)
chain: GRRRSVQWCAVSQPEATKCFQWQRNMRKVRGPPVSCIKRDSPIQCIQAIAENRADAVTLDGGFIYEAGLAPYKLRPVAAEVYGTERQPRTHYYAVAVVKKGGSFQLNELQGLKSCHTGLRRTAGWNVPIGTLRPFLNWTGPPEPIEAAVARFFSASCVPGADKGQFPNLCRLCAGTGENKCAFSSQEPYFSYSGAFKCLRDGAGDVAFIRESTVFEDLSDEAERDEYELLCPDNTRKPVDKFKDCHLARVPSHAVVARSVNGKEDAIWNLLRQAQEKFGKDKSPKFQLFGSPSGQKDLLFKDSAIGFSRVPPRIDSGLYLGSGYFTAIQNLRKSEEEVAARRARVVWCAVGEQELRKCNQWSGLSEGSVTCSSASTTEDCIALVLKGEADAMSLDGGYVYTAGKCGLVPVLAENYKSQQSSDPDPNCVDRPVEGYLAVAVVRRSDTSLTWNSVKGKKSCHTAVDRTAGWNIPMGLLFNQTGSCKFDEYFSQSCAPGSDPRSNLCALCIGDEQGENKCVPNSNERYYGYTGAFRCLAENAGDVAFVKDVTVLQNTDGNNNEAWAKDLKLADFALLCLDGKRKPVTEARSCHLAMAPNHAVVSRMDKVERLKQVLLHQQAKFGRNGSDCPDKFCLFQSETKNLLFNDNTECLARLHGKTTYEKYLGPQYVAGITNLKKCSTSPLLEACEFLRK
modifications: glycyrrhizin (oxidised with sodium periodate) coupled to amines of Lf by Schiff-base reaction and reduction with NaBH3CN; binding ratio Lf:GL 1:10 (1:9.6 by MALDI-TOF, 86,727.3 Da); modified residues not identified
Consider B2, for which the dissociation rate constant (koff) is 0.000311 s⁻¹.

B3: lactoferrin human (Lf) (natural protein)
chain: GRRRSVQWCAVSQPEATKCFQWQRNMRKVRGPPVSCIKRDSPIQCIQAIAENRADAVTLDGGFIYEAGLAPYKLRPVAAEVYGTERQPRTHYYAVAVVKKGGSFQLNELQGLKSCHTGLRRTAGWNVPIGTLRPFLNWTGPPEPIEAAVARFFSASCVPGADKGQFPNLCRLCAGTGENKCAFSSQEPYFSYSGAFKCLRDGAGDVAFIRESTVFEDLSDEAERDEYELLCPDNTRKPVDKFKDCHLARVPSHAVVARSVNGKEDAIWNLLRQAQEKFGKDKSPKFQLFGSPSGQKDLLFKDSAIGFSRVPPRIDSGLYLGSGYFTAIQNLRKSEEEVAARRARVVWCAVGEQELRKCNQWSGLSEGSVTCSSASTTEDCIALVLKGEADAMSLDGGYVYTAGKCGLVPVLAENYKSQQSSDPDPNCVDRPVEGYLAVAVVRRSDTSLTWNSVKGKKSCHTAVDRTAGWNIPMGLLFNQTGSCKFDEYFSQSCAPGSDPRSNLCALCIGDEQGENKCVPNSNERYYGYTGAFRCLAENAGDVAFVKDVTVLQNTDGNNNEAWAKDLKLADFALLCLDGKRKPVTEARSCHLAMAPNHAVVSRMDKVERLKQVLLHQQAKFGRNGSDCPDKFCLFQSETKNLLFNDNTECLARLHGKTTYEKYLGPQYVAGITNLKKCSTSPLLEACEFLRK
For the molecule B3, the koff was found to be 0.0134 s⁻¹.

B4: lactoferrin-glycyrrhizin conjugate Lf-GL (1:4) (other)
chain: GRRRSVQWCAVSQPEATKCFQWQRNMRKVRGPPVSCIKRDSPIQCIQAIAENRADAVTLDGGFIYEAGLAPYKLRPVAAEVYGTERQPRTHYYAVAVVKKGGSFQLNELQGLKSCHTGLRRTAGWNVPIGTLRPFLNWTGPPEPIEAAVARFFSASCVPGADKGQFPNLCRLCAGTGENKCAFSSQEPYFSYSGAFKCLRDGAGDVAFIRESTVFEDLSDEAERDEYELLCPDNTRKPVDKFKDCHLARVPSHAVVARSVNGKEDAIWNLLRQAQEKFGKDKSPKFQLFGSPSGQKDLLFKDSAIGFSRVPPRIDSGLYLGSGYFTAIQNLRKSEEEVAARRARVVWCAVGEQELRKCNQWSGLSEGSVTCSSASTTEDCIALVLKGEADAMSLDGGYVYTAGKCGLVPVLAENYKSQQSSDPDPNCVDRPVEGYLAVAVVRRSDTSLTWNSVKGKKSCHTAVDRTAGWNIPMGLLFNQTGSCKFDEYFSQSCAPGSDPRSNLCALCIGDEQGENKCVPNSNERYYGYTGAFRCLAENAGDVAFVKDVTVLQNTDGNNNEAWAKDLKLADFALLCLDGKRKPVTEARSCHLAMAPNHAVVSRMDKVERLKQVLLHQQAKFGRNGSDCPDKFCLFQSETKNLLFNDNTECLARLHGKTTYEKYLGPQYVAGITNLKKCSTSPLLEACEFLRK
modifications: glycyrrhizin (oxidised with sodium periodate) coupled to amines of Lf by Schiff-base reaction and reduction with NaBH3CN; ratio Lf:GL 1:4 as printed; modified residues not identified
Regarding B4, the koff came to 0.00158 s⁻¹.
